Test results: patent publication US20130052176, “APTAMER FOR NGF AND USE THEREOF” (SHIONOGI & CO., LTD, published 2013)

Experiments:
[1] = molecular target: T1, NGF (nerve growth factor) (human, UniProt P01138 P01138:122-241); experiment: cell_activity; neurite outgrowth, NGF 1.1 nM; SPR binding; blocks NGF-TrkA; TF-1 IC50 20.4 nM; conditions: tags: amine-coupled to CM5 chip in SPR; soluble in cell assays; chain copies: 2
Description: (§1) The neurite outgrowth inhibitory activity of the aptamer obtained in Example 1 was evaluated by using Neuroscreen-1 cell, which is a subclone of PC-12 cells.
(§2) The cells (2500 cells per well) were cultured for one day in an RPMI-1640 medium containing 2.5% horse serum and 1.25% fetal bovine serum in a 96 well flat-bottom plate coated with collagen type IV. […] Two days later, the cytoplasm and nuclei were stained using Cellomics Neurite Outgrowth Kit (manufactured by Thermo Scientific), and neurite length per cell was measured by Cellomics ArrayScan VTI (manufactured by Thermo Scientific). With the neurite length per cell obtained by the addition of NGF alone as inhibitory activity 0%, and that of the cell obtained by NGF free culture for 2 days as inhibitory activity 100%, the inhibitory activity of the aptamer was calculated from the neurite length per cell obtained by culturing with the addition of NGF and the aptamer in mixture. When the inhibitory activity was 0% or below, ‘0%’ is indicated.

[2] = molecular target: T1, NGF (nerve growth factor); experiment: cell_activity; neurite outgrowth, NGF 1.1 nM; SPR binding; TF-1 IC50 1.4 nM; conditions: tags: amine-coupled to CM5 chip in SPR; soluble in cell assays; chain copies: 2
Description: as §1, §2

[3] = molecular target: T1, NGF (nerve growth factor); experiment: cell_activity; neurite outgrowth, NGF 1.1 nM; SPR binding; TF-1 IC50 >30 nM; conditions: tags: amine-coupled to CM5 chip in SPR; soluble in cell assays; chain copies: 2
Description: as §1, §2

[4] = molecular target: T1, NGF (nerve growth factor); experiment: cell_activity; neurite outgrowth, NGF 1.1 nM; SPR binding; TF-1 IC50 3.2 nM; conditions: tags: amine-coupled to CM5 chip in SPR; soluble in cell assays; chain copies: 2
[5] = molecular target: T1, NGF (nerve growth factor); experiment: cell_activity; neurite outgrowth, NGF 0.38 nM; SPR binding; TF-1 IC50 2.8 nM; conditions: tags: amine-coupled to CM5 chip in SPR; soluble in cell assays; chain copies: 2
Description: as §1, §2

[6] = molecular target: T1, NGF (nerve growth factor); experiment: cell_activity; neurite outgrowth, NGF 0.38 nM; SPR binding; TF-1 IC50 0.062 nM; conditions: tags: amine-coupled to CM5 chip in SPR; soluble in cell assays; chain copies: 2
Description: as §1, §2

[7] = molecular target: T1, NGF (nerve growth factor); experiment: cell_activity; neurite outgrowth, NGF 0.38 nM; SPR binding; TF-1 IC50 0.083 nM; conditions: tags: amine-coupled to CM5 chip in SPR; soluble in cell assays; chain copies: 2
Description: as §1, §2

[8] = molecular target: T1, NGF (nerve growth factor); experiment: cell_activity; neurite outgrowth, NGF 0.38 nM; TF-1 IC50 0.044 nM; conditions: tags: human NGF; chain copies: 2
[9] = molecular target: T1, NGF (nerve growth factor); experiment: cell_activity; neurite outgrowth, NGF 0.38 nM; TF-1 IC50 0.165 nM; conditions: tags: human NGF; chain copies: 2
Description: as §1, §2

[10] = molecular target: T1, NGF (nerve growth factor); experiment: cell_activity; neurite outgrowth, NGF 0.38 nM; SPR binding; TF-1 IC50 0.108 nM; conditions: tags: amine-coupled to CM5 chip in SPR; soluble in cell assays; chain copies: 2
Description: as §1, §2

[11] = molecular target: T1, NGF (nerve growth factor); experiment: cell_activity; neurite outgrowth, NGF 0.38 nM; SPR binding; TF-1 IC50 0.119 nM; conditions: tags: amine-coupled to CM5 chip in SPR; soluble in cell assays; chain copies: 2
Description: as §1, §2

[12] = molecular target: T1, NGF (nerve growth factor); experiment: cell_activity; neurite outgrowth, NGF 0.38 nM; TF-1 IC50 0.193 nM; conditions: tags: human NGF; chain copies: 2
Description: as §1, §2

[13] = molecular target: T1, NGF (nerve growth factor); experiment: cell_activity; neurite outgrowth, NGF 0.38 nM; TF-1 IC50 0.239 nM; conditions: tags: human NGF; chain copies: 2
Description: as §1, §2

[14] = molecular target: T1, NGF (nerve growth factor); experiment: cell_activity; neurite outgrowth, NGF 0.38 nM; SPR binding; TF-1 IC50 0.120 nM; conditions: tags: amine-coupled to CM5 chip in SPR; soluble in cell assays; chain copies: 2
Description: as §1, §2

[15] = molecular target: T1, NGF (nerve growth factor); experiment: cell_activity; neurite outgrowth, NGF 1.1 nM; TF-1 IC50 <1.0 nM; conditions: tags: human NGF; chain copies: 2
Description: as §1, §2

T1 sequence (P01138 122-241, one chain of several): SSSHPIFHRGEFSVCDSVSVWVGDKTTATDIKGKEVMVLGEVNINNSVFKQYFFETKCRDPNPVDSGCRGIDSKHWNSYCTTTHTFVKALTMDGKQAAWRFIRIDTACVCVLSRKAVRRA

B1: aptamer ID 1 (ssRNA)
RNA: GGGAGAACUUCGACCAGAAGUUUGAAAGAAACCCAAAUUAAAGUGAACAGUAUGUGCGCAUACA
modifications: 2'-F at all pyrimidines
- IC50 [1]: 2100 pM

B2: aptamer ID 28 (ssRNA)
RNA: GGGAGACUCGCAGAGUUGAAAGAAACCCAAAUAAGUGUGCGCAC
modifications: 2'-F at all pyrimidines
- IC50 [2]: < 1000 pM

B3: aptamer ID 43 (ssRNA)
RNA: GGGAGAACUUCGACCAGAAGUCGAUAACGAACAAAACUCCCAAAUAUGUGCGCAUACA
modifications: 2'-F at all pyrimidines
- IC50 [3]: < 3000 pM

B4: aptamer ID 19 (ssRNA)
RNA: GGGAGAACUUCGCCAGAAGUUUGAAAGAAACCCAAAUAAAGAUGUGCGCAUC
modifications: 2'-F at all pyrimidines
- IC50 [4]: 1300 pM

B5: aptamer ID 30 (ssRNA)
RNA: GGGAGACUCGCAGAGUUGAAAGAAACCCAAAUAGUGUGCGCAC
modifications: 2'-F at all pyrimidines
- IC50 [5]: < 300 pM

B6: aptamer ID 26(49) (ssRNA)
RNA: GGGAGACUCGCCAGAGUUGAAAGAAACCCAAAUAAGUGUGCGCAC
modifications: 2'-F pyrimidines except 2'-OMe at 7,8,9,11,12,17,18,33,37,45; 2'-OMe purines except 2'-OH at 3,19,20,26; 5' idT and 3' idT
- IC50 [6]: 59 pM

B7: aptamer ID 26(50) (mixed)
RNA: GGGAGACUCGCCAGAGUUGAAAGAAACCCAAAUAAGUGUGCGCAC
modifications: 2'-F pyrimidines except 2'-OMe at 7,11,12,17,33,45, dT at 8,37 and dC at 9,29; 2'-OMe purines except 2'-OH at 3,19,20,26; 5' idT and 3' idT
- IC50 [7]: 46 pM

B8: aptamer ID 26(10) (ssRNA)
RNA: GGGAGACUCGCCAGAGUUGAAAGAAACCCAAAUAAGUGUGCGCAC
modifications: 5' and 3' idT; 2'-F all pyrimidines; 2'-OMe all purines except ribo g3,g5,g19,a20,a21,a22,a24
- IC50 [8]: 47 pM

B9: aptamer ID 26(30) (mixed)
RNA: GGGAGACUCGCCAGAGUUGAAAGAAACCCAAAUAAGUGUGCGCAC
modifications: as 26(19) (5' and 3' idT; 2'-F pyrimidines; 2'-OMe purines except ribo g3,g19,a20,a26) but c45 is dC
- IC50 [9]: 289 pM

B10: aptamer ID 26(51) (ssRNA)
RNA: GGGAGACUCGCCAGAGUUGAAAGAAACCCAAAUAAGUGUGCGCAC
modifications: 2'-F pyrimidines except 2'-OMe at 7,8,9,11,12,17,18,33,37,45; 2'-OMe purines except 2'-OH at 3,19,20; 5' idT and 3' idT
- IC50 [10]: 191 pM

B11: aptamer ID 26(63) (mixed)
RNA: GGGAGACUCGCCAGAGUUGAAAGAAACCCAAAUAAGUGUGCGCAC
modifications: 2'-F pyrimidines except 2'-OMe at 7,8,9,11,12,17,18,33,37,39,45 and dC at 27,29; 2'-OMe purines except 2'-OH at 3,19,20,26; 5' idT and 3' idT
- IC50 [11]: 139 pM

B12: aptamer ID 26(32) (ssRNA)
RNA: GGGAGACUCGCCAGAGUUGAAAGAAACCCAAAUAAGUGUGCGCAC
modifications: as 26(19) (5' and 3' idT; 2'-F pyrimidines; 2'-OMe purines except ribo g3,g19,a20,a26) but c11 is 2'-OMe
- IC50 [12]: 220 pM

B13: aptamer ID 26(34) (ssRNA)
RNA: GGGAGACUCGCCAGAGUUGAAAGAAACCCAAAUAAGUGUGCGCAC
modifications: as 26(19) (5' and 3' idT; 2'-F pyrimidines; 2'-OMe purines except ribo g3,g19,a20,a26) but u33 is 2'-OMe
- IC50 [13]: 247 pM

B14: aptamer ID 26(62) (ssRNA)
RNA: GGGAGACUCGCCAGAGUUGAAAGAAACCCAAAUAAGUGUGCGCAC
modifications: 2'-F pyrimidines except 2'-OMe at 7,8,9,11,12,17,18,33,37,45; 2'-OMe purines except 2'-OH at 3,19,20 and LNA at a26; 5' idT and 3' idT
- IC50 [14]: 228 pM

B15: aptamer ID 26 (ssRNA)
RNA: GGGAGACUCGCCAGAGUUGAAAGAAACCCAAAUAAGUGUGCGCAC
modifications: 2'-F all pyrimidines
- IC50 [15]: < 1000 pM
